Here are results for one molecule from publication PMC6842044.

This assay addresses Glial cell line-derived neurotrophic factor (GDNF), immobilised for SPR (UniProt P39905). Put plainly: SPR. (SPR reads the build-up and loss of mass on a sensor chip optically.)

B1: Activin receptor-like kinase 5 (ALK5), analyte in SPR (receptor)
chain: LQCFCHLCTKDNFTCVTDGLCFVSVTETTDKVIHNSMCIAEIDLIPRDRPFVCAPSSKTGSVTTTYCCNQDHCNKIELPTTVKSSPGLGPVELAAVIAGPVCFVCISLMLMVYICHNRTVIHHRVPNEEDPSLDRPFISEGTTLKDLIYDMTTSGSGSGLPLLVQRTIARTIVLQESIGKGRFGEVWRGKWRGEEVAVKIFSSREERSWFREAEIYQTVMLRHENILGFIAADNKDNGTWTQLWLVSDYHEHGSLFDYLNRYTVTVEGMIKLALSTASGLAHLHMEIVGTQGKPAIAHRDLKSKNILVKKNGTCCIADLGLAVRHDSATDTIDIAPNHRVGTKRYMAPEVLDDSINMKHFESFKRADIYAMGLVFWEIARRCSIGGIHEDYQLPYYDLVPSDPSVEEMRKVVCEQKLRPNIPNRWQSCEALRVMAKIMRECWYANGAARLTALRIKKTLSQLSQQEGIKM
B1: the Kd is 85.5 nM.

For orientation: Kd means the constant that tells how readily two partners part at equilibrium. Read a low Kd as higher affinity.
